The values below come from US20230220085A1 (BRIGHAM AND WOMEN S HOSPITAL, published 2023).

For assay [1], the target named is T1, Recombinant human ALK1-Fc (ALK1 extracellular domain-IgG Fc fusion protein) (human, UniProt P37023 22-118).
T1 construct: extracellular domain; Bought reagent (R&D #370AL is named for the luciferase assay); also called immobilized ALK1; ACVRL1; not shown: IgG Fc of the bought fusion protein (captured on anti-human IgG Fc sensors)
The assay is described as follows: BLI, immobilized ALK1, FIG. 4D. The method, then: (§1) To characterize the biochemical interactions of the scFv clones with recombinant human ALK1 and BMPR2 receptors, we used Bio-Layer Interferometry (Octet Red 384, ForteBio). Receptors, expressed as IgG Fc fusion proteins (i.e., ALK1-Fc, and BMPR2-Fc) were immobilized onto Anti-Human IgG Fc Capture Sensors (ForteBio, #18-0015) at a concentration of 10 µg/mL in an equilibration buffer of HEPES 20 mM (GIBCO #15630), 0.05% Tween-20 (Promega #H5151), and Imidazole 25 mM (SIGMA #10250) in PBS. All the clones were tested at different ranges of concentration in equilibration buffer: 50 nM, 100 nM, 200 nM, and 400 nM. The ForteBio program methodology was set as follows: Baseline equilibration of 60 s, loading time of 60 s, washing time of 120 s, association time of 300 s, and dissociation time of 600 s. The binding kinetics were analyzed using the ForteBio data analysis software.

The target in assay [2] is T1, Recombinant human ALK1-Fc (ALK1 …). The assay is described as follows: BLI (Octet Red), FIG. 2A. The method, then: as §1
(§2) Bio-Layer Interferometry was used to determine the affinities of scFv clones for human BMPR2 and ALK1 receptors. The binding kinetics of scFv clones ALK1.3 (FIG. 1A) and ALK1.8 (FIG. 1B) versus immobilized ALK1; and BMPR2.12 (FIG. 1C) and BMPR2.23 (FIG. 1D) against BMPR2 are shown.
On the technique in general: In BLI a coated tip is dipped into the sample, and binding shifts an interference pattern.

For assay [3], the target named is T2, Recombinant human BMPR2-Fc (BMPR2 extracellular domain-IgG Fc fusion protein) (human, UniProt Q13873 27-150).
T2 construct: extracellular domain; also called immobilized BMPR2; BMPRII; not shown: IgG Fc of the fusion protein (captured on anti-human IgG Fc sensors)
T2 sequence (looked up): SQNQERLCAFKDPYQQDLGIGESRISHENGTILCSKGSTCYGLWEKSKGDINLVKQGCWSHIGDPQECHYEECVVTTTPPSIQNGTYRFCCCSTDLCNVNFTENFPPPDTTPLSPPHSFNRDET
The assay is described as follows: BLI, immobilized BMPR2, FIG. 4C. The protocol: as §1

For assay [4], the target named is T1, Recombinant human ALK1-Fc (ALK1 …). The assay is described as follows: BLI, FIG. 4B. The method, then:
as §1

Assay [5] has as its target T2, Recombinant human BMPR2-Fc (BMPR2 …). The assay is described as follows: BLI (Octet Red), FIG. 2B. The protocol:
as §1, §2

The target in assay [6] is T1, Recombinant human ALK1-Fc (ALK1 …). The assay is described as follows: BLI (Octet Red), immobilized ALK1, FIG. 2A. The protocol: as §1, §2
In assay [7] the target is T2, Recombinant human BMPR2-Fc (BMPR2 …). The assay is described as follows: BLI, FIG. 4C. The method, then: as §1
Assay [8] addresses T1, Recombinant human ALK1-Fc (ALK1 …). The assay is described as follows: BLI, immobilized ALK1, FIG. 4B. The protocol: as §1

T1 sequence (P37023 22-118): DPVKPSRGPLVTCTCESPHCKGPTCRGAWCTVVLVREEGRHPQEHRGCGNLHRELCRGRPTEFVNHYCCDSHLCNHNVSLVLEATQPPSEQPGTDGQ

B1: scFv clone BMPR2.23 (anti-BMPR2/BMPRII) (scFv)
scFv: QAVLTQPSSLSASPGASASLTCTLHSGINVATYRIYWYQQKPGSPPQYLLTYKSDLDKHQGSGVPSRFSGSKDASANAGILLISGLQSDDEGDYYCLIWHDYVWYFGGGTKVTVLGEGKSSGSGSESKASEVQLLESGGGLVQPGRSLRLSCAASGFTFDDYAMHWVRQAPGKGLEWVSGISWNSGSIGYADSVKGRFTISRDNAKNSLYLQMNSLRAEDTALYYCAKGGWGSSTHYYYGMDVWGQGTTVTVSS
For B1, the binding result in assay [1] is “no binding”.

B2: Biotinylated scFv BMPR2.23 (scFv)
scFv: B1 scFv
modifications: biotinylated (DSB-X Biotin Protein Labeling Kit; average 1.5-2 sites per molecule; sites not stated)
notes: BMPR2.23 scFv after biotinylation
Regarding B2, the binding result in assay [1] is “no binding”.

B3: scFv clone ALK1.3 (anti-ACVRL1/ALK1) (scFv)
scFv: QSALTQPASVSGSPGQSITISCAGTSSDVGTYNYVSWYQQHPGKAPKLMIYDVSKRPSGVPDRFSGSKSGNTASLTISGLQAEDEADYYCYSYTTSSTWVFGGGTKVTVLGEGKSSGSGSESKASQVQLQESGPGLLKPSQTLSLTCTVSGDSIGSGDYYWSWIRQPPGKGLEWIGYSYHTGSTDYNPSLKSRVSISVDRSKNQFSLKLRSVTAADTAVYYCARDYYGYLGYWGQGTLVTVSS
notes: Human scFv from phage display, VL-linker-VH, expressed in E. coli
In the case of B3, the binding result in assay [2] is “binds”; in assay [3] it was “no binding”.

B4: Biotinylated scFv ALK1.3 (scFv)
scFv: B3 scFv
modifications: biotinylated (DSB-X Biotin Protein Labeling Kit; average 1.5-2 sites per molecule; sites not stated)
notes: ALK1.3 scFv after low substitution ratio biotinylation; also called ALK1.3-Bio
For the molecule B4, the binding result in assay [4] is reported as “binds”; in assay [3], “no binding”.

B5: scFv clone BMPR2.12 (anti-BMPR2/BMPRII) (scFv)
scFv: QSALTQPASVSGSPGQSITISCTGTSSDVGGYKSVSWYQQHPGKAPKLMIYDVSNRPSGVSDRFSGSKSGNTASLTISGLQAEDEADYYCSSYTSSSSLWVFGGGTKLTVLGEGKSSGSGSESKASQVQLVQSGAEVKKPGSSVKVSCKASGGTFSSYAISWVRQAPGQGLEWMGRIIPILGIANYAQKFQGRVTMTEDTSTDTAYMELSSLRSEDTAVYYCATDLWGVGADWGQGTLVTVSS
notes: as for B3
As to B5, the binding result in assay [5] is reported as “binds”; in assay [6] it was “no binding”.

B6: Biotinylated scFv BMPR2.12 (scFv)
scFv: B5 scFv
modifications: biotinylated (DSB-X Biotin Protein Labeling Kit; average 1.5-2 sites per molecule; sites not stated)
notes: BMPR2.12 scFv after low substitution ratio biotinylation; also called BMPR2.12-Bio
B6: the binding result is listed as “binds” in assay [7] and “no binding” in assay [8].
